Several values for one entry are separate records, joined by “and”; a condition that tells them apart may be missing. Identical values can stand only once.
B1: sce: mevalonate kinase of Saccharomyces cerevisiae encoded by the ERG12 gene, His-tagged purified enzyme (protein, UniProt P07277 1-443, looked up)
Mevalonate kinase: MSLPFLTSAPGKVIIFGEHSAVYNKPAVAASVSALRTYLLISESSAPDTIELDFPDISFNHKWSINDFNAITEDQVNSQKLAKAQQATDGLSQELVSLLDPLLAQLSESFHYHAAFCFLYMFVCLCPHAKNIKFSLKSTLPIGAGLGSSASISVSLALAMAYLGGLIGSNDLEKLSENDKHIVNQWAFIGEKCIHGTPSGIDNAVATYGNALLFEKDSHNGTINTNNFKFLDDFPAIPMILTYTRIPRSTKDLVARVRVLVTEKFPEVMKPILDAMGECALQGLEIMTKLSKCKGTDDEAVETNNELYEQLLELIRINHGLLVSIGVSHPGLELIKNLSDDLRIGSTKLTGAGGGGCSLTLLRRDITQEQIDSFKKKLQDDFSYETFETDLGGTGCCLLSAKNLNKDLKIKSLVFQLFENKTTTKQQIDDLLLPGNTNLPWTS
modifications: His-tag
B2: nmr: mevalonate kinase derived from Nitrosopumilus maritimus (SEQ ID NO:9), His-tagged purified enzyme (protein, listed as Nitrosopumilus maritimus)
chain: MKSKASAPGKVILFGEHFVVYGVKAILCAINKRIAVTAEKIDERKISIKSNIGHLELEPNKPISEINSPLKPFYYLANKIIQDKNFGIKIDVESEIPLGVGLGSSSACCVAGAAAISNLFENNSKEEILKLAIEAEKTIFQNTSGADCTVCTFGGLMEYDKENGFSKIESEPNFHLVIANSNVEHSTESVVAGVRKFKKNNEAEFSKLCKDESHLIENVLELLKENNIRELGERVIKNQEYLERIGISNAKLREMIQTGQNSSFGAKITGAGGGGCIFALTDESNLENTIKEFKEKNHECFSVKIDFKGLDTF
modifications: His-tag
B3: mma: known mevalonate kinase derived from Methanosarcina mazei (SEQ ID NO:12), His-tagged purified enzyme (protein, listed as Methanosarcina mazei)
chain: MVSCSAPGKIYLFGEHAVVYGETAIACAVELRTRVRAELNDSITIQSQIGRTGLDFEKHPYVSAVIEKMRKSIPINGVFLTVDSDIPVGSGLGSSAAVTIASIGALNELFGFGLSLQEIAKLGHEIEIKVQGAASPTDTYVSTFGGVVTIPERRKLKTPDCGIVIGDTGVFSSTKELVANVRQLRESYPDLIEPLMTSIGKISRIGEQLVLSGDYASIGRLMNVNQGLLDALGVNILELSQLIYSARAAGAFGAKITGAGGGGCMVALTAPEKCNQVAEAVAGAGGKVTITKPTEQGLKVD
modifications: His-tag

Legend:
Format in all cases: biochemical
mevalonate kinase [1] = test: Measurement of activity and Km value of purified mevalonate kinase (PK/LDH coupled, 340 nm); conditions: 10 μl enzyme in 1 ml, replicate values; for dABS/min at mev 0.01 mM: potassium mevalonate 0.01 mM; for dABS/min at mev 0.04 mM: potassium mevalonate 0.04 mM; for dABS/min at mev 0.2 mM: potassium mevalonate 0.2 mM
Description: Each obtained plasmid was used for transformation of E. coli BL21(DE3). […] When OD600 reached approximately 0.5, 0.1 mM IPTG (for cva, mma, nmr, and sce) or 1 mM (for mcl and mpd) of IPTG was added, and then the mixture was kept at 20° C. overnight to induce the target protein. Harvested cells were suspended in buffer solution A (50 mM sodium phosphate, 0.3 M NaCl and 20 mM Imidazol), and then the cells were disrupted with an ultrasonic disruptor (TOMY: UD-201). […] After centrifugation (28,000×g, 30 min), the supernatant was adsorbed onto His-Trap HP (GE Healthcare) to elute the target protein by linear concentration gradient of Imidazol (final concentration 0.5 M). Obtained protein was dialyzed by using an external solution composed of 20 mM Tris-HCl (pH 8.0) containing 1 mM DTT and 50 mM NaCl. Dialyzed protein was designated as purified enzyme. Protein quantity was measured with Bio-RAD protein assay kit and BSA standard condition.
(§1) Decrease in absorbance at 340 nm at 30° C. was measured to determine the enzyme activity. JASCO Corporation's spectrophotometer (V-650) was used in this study. Millimolar extinction coefficient of NADH used in this study was 6.22 mM^−1 cm^−1. […] Km value was calculated by Lineweaver-Burk plot.
Measured activity of each enzyme (JABS/min) was presented on Table 9 for the calculation of apparent Km value (Km app.) of each enzyme. Table 10 presents Km app., Vmax, molecular weight of the enzyme protein, protein concentration in the enzyme solution and calculated kcat.
Activity was indicated by dABS/min when 10 μl of each enzyme was added to 1 ml of reaction solution.

mevalonate kinase [2] = test: Examination of product inhibition on each mevalonate kinase (absorbance at 386 nm, PMK addition); conditions: in words; for course of decrease in absorbance at 386 nm until PMK addition: 1 mM mevalonate as substrate
Description: When decrease in absorbance stopped, purified PMK was added to measure further decrease in absorbance at 386 nm.
FIG. 18 presents the SDS-PAGE profile of the purified PMK. […] Then, absorbance decreased further and finally absorbance at 386 nm decreased to 0.3 in all reaction systems. Therefore, it is inferred that mevalonate is converted into diphosphomevalonate via phosphomevalonate by adding PMK to each MVK.

mevalonate kinase [3] = test: Expression analysis and activity confirmation of His-tagged mevalonate kinases from pET-21a(+) and pET-28b(+); conditions: His-spinTrap eluate after dialysis, 10 μl enzyme solution
Description: Each obtained plasmid was used for transformation of E. coli BL21(DE3). […] When OD600 reached approximately 0.5, IPTG was added to the solution to final concentration of 1 mM. It was then cultured overnight at 20° C. Harvested cells were suspended in the buffer solution consisting of 50 mM sodium phosphate, 0.3 M NaCl and 20 mM Imidazol. Then the cells were disrupted with an ultrasonic disruptor (TOMY: UD-201, output level=3.5). After centrifugation (20,000×g, 20 min), disrupted cells were adsorbed to His-spinTrap (GE Healthcare). After washing with the same buffer solution, protein was eluted with the buffer solution consisting of 50 mM sodium phosphate, 0.3 M NaCl and 0.5 M imidazole (pH7.5). Eluate was dialyzed overnight at 4° C. with the external solution composed of 20 mM Tris-HCl (pH7.5) and 50 mM NaCl. Then, enzyme activity of each eluate in the internal dialysis solution was measured.
Activity of the internal dialysate (about 0.2 ml each) was measured with the 10 μl of enzyme solution (Table 8). Enzyme expression level was compared on activity basis between pET-21a(+) and pET-28b(+). […] It is inferred that expression level is higher in pET-28b(+). Therefore, purified enzyme expressed in pET-28b(+) was used in the further examinations.
Values were presented by decrease in absorbance per unit time per 10 μl in the enzyme reaction measurement system (dABS/min/10 μl).
as §1

mevalonate kinase [4] = test: Inhibition of each mevalonate kinase by DMAPP, GPP, FPP or DPM
Description: Since GPP and FPP solutions contain methanol, methanol which was needed to keep the same methanol level at the addition to the reaction system was added to the reaction solution, which was designated as control.
Respective effect of the added 5 mM DMAPP, 0.1 mM GPP, and 0.1 mM FPP on the activity of each enzyme was measured. […] Contrarily, mcl-derived enzyme was activated by 5 mM DMAPP and its activity increased by 20% from that of the control.
Activity when 10 μl of each enzyme was added to 1 ml of the reaction system was represented by dABS/min
Effect of 1 mM diphosphomevalonate (DPM) on each enzyme was also studied.

[5] = Table 11 control without terpenyl diphosphate (methanol added)

course of decrease in absorbance at 386 nm until PMK addition (mevalonate kinase [2])	DPM-induced inhibition (mevalonate kinase [2])	Molecule	dABS/min at ATP 0.2 mM (mevalonate kinase [1]; potassium mevalonate 5 mM)	dABS/min at ATP 1 mM (mevalonate kinase [1]; potassium mevalonate 5 mM)	dABS/min at ATP 5 mM (mevalonate kinase [1]; ATP 5 mM, potassium mevalonate 5 mM)	dABS/min at mev 0.01 mM (mevalonate kinase [1]; ATP 5 mM)	dABS/min at mev 0.04 mM (mevalonate kinase [1]; ATP 5 mM)	dABS/min at mev 0.2 mM (mevalonate kinase [1]; ATP 5 mM)	enzyme activity, pET21 system (C terminal Tag) (mevalonate kinase [3]) [dABS/min/10 μl]	enzyme activity, pET28 system (N terminal Tag) (mevalonate kinase [3]) [dABS/min/10 μl]	enzyme activity, Control (mevalonate kinase [4]; [5]) [dABS/min]	enzyme activity, Control (mevalonate kinase [4]; Table 12 control without DPM) [dABS/min]	dABS/min at ATP 0.04 mM (mevalonate kinase [1]; potassium mevalonate 5 mM)	dABS/min at mev 1 mM (mevalonate kinase [1]; potassium mevalonate 1 mM, ATP 5 mM)
almost linear decrease in absorbance		B1	0.03041 dABS/min and 0.0304 dABS/min and 0.03229 dABS/min	0.07032 dABS/min and 0.07022 dABS/min and 0.0702 dABS/min	0.09422 dABS/min and 0.0941 dABS/min and 0.09418 dABS/min	0.01813 dABS/min and 0.01981 dABS/min and 0.01853 dABS/min	0.05257 dABS/min and 0.05264 dABS/min and 0.05265 dABS/min	0.11 dABS/min and 0.1103 dABS/min (2×)	0.001	0.127	0.1365	0.1028		
almost linear decrease in absorbance		B3	0.05835 dABS/min and 0.05848 dABS/min and 0.05859 dABS/min	0.1533 dABS/min (2×) and 0.1528 dABS/min		0.02921 dABS/min and 0.02805 dABS/min and 0.02788 dABS/min	0.08012 dABS/min and 0.08006 dABS/min and 0.08009 dABS/min	0.1761 dABS/min and 0.1758 dABS/min and 0.176 dABS/min	0.225	0.231	0.21	0.1604	0.01326 dABS/min and 0.01358 dABS/min and 0.01398 dABS/min	

Molecule	course of decrease in absorbance at 386 nm until PMK addition (mevalonate kinase [2])	DPM-induced inhibition (mevalonate kinase [2])	dABS/min at ATP 0.2 mM (mevalonate kinase [1]; potassium mevalonate 5 mM)	dABS/min at ATP 1 mM (mevalonate kinase [1]; potassium mevalonate 5 mM)	dABS/min at ATP 5 mM (mevalonate kinase [1]; ATP 5 mM, potassium mevalonate 5 mM)	dABS/min at mev 0.01 mM (mevalonate kinase [1]; ATP 5 mM)	dABS/min at mev 0.04 mM (mevalonate kinase [1]; ATP 5 mM)	dABS/min at mev 0.2 mM (mevalonate kinase [1]; ATP 5 mM)	enzyme activity, pET21 system (C terminal Tag) (mevalonate kinase [3]) [dABS/min/10 μl]	enzyme activity, pET28 system (N terminal Tag) (mevalonate kinase [3]) [dABS/min/10 μl]	enzyme activity, Control (mevalonate kinase [4]; [5]) [dABS/min]	enzyme activity, Control (mevalonate kinase [4]; Table 12 control without DPM) [dABS/min]	dABS/min at ATP 0.04 mM (mevalonate kinase [1]; potassium mevalonate 5 mM)	dABS/min at mev 1 mM (mevalonate kinase [1]; potassium mevalonate 1 mM, ATP 5 mM)
B2	decrease in the rate of reaction associated with the progression of reaction	not observed	0.03637 dABS/min and 0.03629 dABS/min and 0.03625 dABS/min	0.1089 dABS/min and 0.1084 dABS/min and 0.1085 dABS/min			0.01691 dABS/min and 0.01687 dABS/min and 0.0168 dABS/min	0.06788 dABS/min and 0.06784 dABS/min and 0.06777 dABS/min	0.137	0.247	0.2438	0.2064	0.007781 dABS/min and 0.00767 dABS/min and 0.007932 dABS/min	0.1521 dABS/min and 0.1522 dABS/min and 0.153 dABS/min

— patent US10184137B2, “Method of producing isoprene monomer” (AJINOMOTO CO., INC., priority 2014, dated 2019)
